Test results from paper PMC3391258 (PLoS ONE, 2012).

T1: TolC with a hexahistidine-tag at the C-terminus (E. coli, UniProt P02930 23-493)
T1 construct: also called TolC-His; hexa-His-tagged wild-type TolC; not shown: His6, C-terminal, kept
T1 sequence (looked up): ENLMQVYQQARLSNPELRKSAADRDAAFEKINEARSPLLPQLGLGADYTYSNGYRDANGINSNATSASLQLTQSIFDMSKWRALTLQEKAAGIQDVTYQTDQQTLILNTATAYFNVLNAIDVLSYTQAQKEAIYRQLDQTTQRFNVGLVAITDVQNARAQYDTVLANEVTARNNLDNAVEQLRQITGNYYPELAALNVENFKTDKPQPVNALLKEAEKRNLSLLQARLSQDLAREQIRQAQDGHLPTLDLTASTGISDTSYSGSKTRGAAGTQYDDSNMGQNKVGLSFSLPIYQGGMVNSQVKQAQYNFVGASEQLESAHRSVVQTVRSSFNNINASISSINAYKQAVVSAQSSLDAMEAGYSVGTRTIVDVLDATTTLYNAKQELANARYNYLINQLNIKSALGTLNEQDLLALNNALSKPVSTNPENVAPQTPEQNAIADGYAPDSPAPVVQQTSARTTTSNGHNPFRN


Target: T1, TolC with a hexahistidine-tag at the …
Assay: cross-linking
Settings: partners not purified

| Binder | crosslinking to TolC, percent of that of wild-type HlyD |
| --- | --- |
| HlyD-R186A tagged with c-Myc at the C-terminus (natural protein, also called HlyD-R186A-C-myc) MKTWLMGFSEFLLRYKLVWSETWKIRKQLDTPVREKDENEFLPAHLELIETPVSRRPRLVAYFIMGFLVIAFILSVLGQVEIVATANGKLTLSGRSKEIKPIENSIVKEIIVKEGESVRKGDVLLKLTALGAEADTLKTQSSLLQARLEQIRYQILSRSIELNKLPELKLPDEPYFQNVSEEEVLALTSLIKEQFSTWQNQKYQKELNLDKKRAERLTILARINRYENVSRVEKSRLDDFRSLLHKQAIAKHAVLEQENKYVEAANELRVYKSQLEQIESEILSAKEEYQLVTQLFKNEILDKLRQTTDSIELLTLELEKNEERQQASVIRAPVSGKVQQLKVHTEGGVVTTAETLMVIVPEDDTLEVTALVQNKDIGFINVGQNAIIKVEAFPYTRYGYLVGKVKNINLDAIEDQKLGLVFNVIVSVEENDLSTGNKHIPLSSGMAVTAEIKTGMRSVISYLLSPLEESVTESLHER | 10 % of wild-type HlyD |
| HlyD-T197A tagged with c-Myc at the C-terminus (natural protein, also called HlyD-T197A-C-myc) MKTWLMGFSEFLLRYKLVWSETWKIRKQLDTPVREKDENEFLPAHLELIETPVSRRPRLVAYFIMGFLVIAFILSVLGQVEIVATANGKLTLSGRSKEIKPIENSIVKEIIVKEGESVRKGDVLLKLTALGAEADTLKTQSSLLQARLEQIRYQILSRSIELNKLPELKLPDEPYFQNVSEEEVLRLTSLIKEQFSAWQNQKYQKELNLDKKRAERLTILARINRYENVSRVEKSRLDDFRSLLHKQAIAKHAVLEQENKYVEAANELRVYKSQLEQIESEILSAKEEYQLVTQLFKNEILDKLRQTTDSIELLTLELEKNEERQQASVIRAPVSGKVQQLKVHTEGGVVTTAETLMVIVPEDDTLEVTALVQNKDIGFINVGQNAIIKVEAFPYTRYGYLVGKVKNINLDAIEDQKLGLVFNVIVSVEENDLSTGNKHIPLSSGMAVTAEIKTGMRSVISYLLSPLEESVTESLHER | 48 % of wild-type HlyD |
